Data as given in patent US20010019714A1 (priority 1998, published 2001).

Target: T1, HLA-A2 on T2 cells (Homo sapiens, UniProt P04439, D140Y/D185E/D98H/E176V/E277Q/G131W/G231S/I119V/I121R/I166T/I218V/L300P/L318F/N151K/N90K/P208A/P217A/Q86G/Q94H/R138H/R169H/T345S)
T1 construct: T2 cell line expressing the HLA-A2 molecules; endogenous in cells; host or cells: T2 cell line (TAP-deficient), from Dr Peter Creswell, Yale University
Test: peptide-induced MHC class 1 assembly assay (HLA-A2 binding and stabilization, FACS)
Format: cell-based
Details: for binding to HLA-A2 on T2 cells (shift of fluorescent peak): antibody BB7.2, FACS, FIG. 1; for order of potency by comparison of fluorescence indices: fluorescence index = mean fluorescence of peptide treated T2 cells / untreated T2 cells
Experimental: Location of the potential CTL containing motifs of the HIV-1(LAI) Rev protein has been predicted by the reported peptide-binding motif algorithms. […] The ability of the peptides containing these motifs to bind and stablize membrane-bound HLA-A2 molecule was assessed using the T2 cell line. The cell line has been well documented to have defective TAP transporter function resulting in the majority of the intracellularly generated peptides being unable to be transported into the endoplasmic reticulum to associate with the newly synthesized HLA class 1 molecules, i.e. HLA-A2 (see references 4, 5). […] Upon interaction with suitable peptides introduced exogenously, the stability of the HLA-A2 molecules can be restored.
T2 cell line expressing the HLA-A2 molecules was obtained from Dr Peter Creswell at the Howard Hughes Research Institute of Yale University. The cells were propagated in Iscove's complete medium (Iscove's medium supplemented with 10% heat-inactivated bovine serum, 120.0 units per ml of penicilin G sodium, 120 μg per ml of streptomycin sulphate, and 0.35 mg per ml of L-glutamine). The ability of individual 8 to 13 mer peptides, prepared as described in Example 1 and identified in Table 1, to bind and modulate the stability of the A2 molecules on T2 cells was determined using a peptide-induced MHC class 1 assembly assay, which was modified from a protocol described by Yuping Deng et al. (ref. 6).
In essence, 1×10^6 T2 cells were incubated with a specified concentration of the test peptide in 250.0 μl of Iscove's serum-free medium (Iscove's medium supplemented with 120.0 units per ml of penicillin G sodium, 120.0 ug per ml of streptomycin sulphate and 0.35 mg per ml of L-glutamine) in a sterile Eppendorf tube at 37° C. overnight. The cells were then incubated on ice for 30 min before 1.0 ml of Iscove's complete medium supplemented with 5.0 ug per ml of brefeldin A, 12.5 ug per ml of anisomycin and 5.0 ug per ml of cyclohexamide was added. The samples were then incubated for 3.0 hr in a 37° C. CO2 incubator.
In the presence of the drugs, further protein synthesis and intracellular delivery of HLA-A2 molecules to the cell surface are inhibited, and de-stabilization of the conformation of the membrane-bound class 1 molecules at the physiological temperature occurs.
The cells were then washed twice with ice-cold PBA (a buffer containing 0.9% sodium chloride, 0.5% bovine serum albumin and 0.02% sodium azide). 100.0 ul of PBA containing 5.0 ug of a conformation-sensitive HLA-A2-specific mouse monoclonal antibody, BB7.2 (ref. 7), was then added to each test sample. The reaction was allowed to take place on ice for 45 min. The cells were then washed three times with ice-cold PBA.
The binding of BB7.2 was then detected by adding […] containing 1.0 ug of goat anti-mouse IgG F(ab′) fluorescein (FITC) conjugate to each cell sample. After 30 min incubation on ice, the cells were washed twice with PBA, and twice again with PBS, pH 7.2. Cells were fixed immediately after washing was completed by adding 100.0 ul of 1.0% paraformaldehyde to the cell pellet. The cells were gently resuspended and were FACS analysed usually within three days after the experiments were completed.
The fluorescence index, which is an indicator for increased density of membrane-bound A2 molecules, was calculated by dividing the mean fluorescence of an experimental sample (peptide treated T2 cells) by the mean fluorescence of the control sample (T2 cells not treated with peptide).

Row | Sequence | binding to HLA-A2 on T2 cells (shift of fluorescent peak) | order of potency by comparison of fluorescence indices
1 | PLQLPPLERLIL [CLP-182] | capable of binding to HLA-A2 on T2 cells | CLP-177>CLP-72>CLP-178>CLP-182
2 | YLGRSAEPVPL [CLP-178] | capable of binding to HLA-A2 on T2 cells | CLP-177>CLP-72>CLP-178>CLP-182
3 | YLGRSAEPV [CLP-177] | capable of binding to HLA-A2 on T2 cells | CLP-177>CLP-72>CLP-178>CLP-182
4 | ILVESPAVL [CLP-72] | capable of binding to HLA-A2 on T2 cells | CLP-177>CLP-72>CLP-178>CLP-182
